Laboratory results from patent US6288037A, “Substrates and inhibitors for cysteine protease ICH-1” (BASF Aktiengesellschaft, priority 1996, dated 2001).

Substrate: CC(=O)N[C@H](C(=O)N[C@@H](CC(=O)O)C(=O)N[C@H](C(=O)N[C@@H](C)C(=O)N[C@@H](CC(=O)O)C(=O)Nc1ccc([N+](=O)[O-])cc1)C(C)C)C(C)C
Test: In vitro proteolysis assay with chromogenic para-nitroaniline-labeled peptide substrate (absorbance 405 nm)
Assay type: biochemical, Human
Details: other: pNA substrate cleaved by N-His Ich-1, 30° C.
Description: To identify peptide substrates for Ich-1, candidate peptides were used in in vitro proteolysis assays with recombinant Ich-1 protein. Human Ich-1 enzyme (the nucleotide and amino acid sequences for which are disclosed in Wang, L., et al. (1994) Cell 78:739-750) was expressed recombinantly with an N-terminal polyhistidine tag by methods described in Kamens, J., et al. (1995) J. Biol. Chem. 270:15250-15256. The resulting enzyme, called N-His Ich-1, contains Ich-1 amino acid residues 167-435, with an initiator and polyhistidine tag fused to the amino terminus. […]
A peptidic aldehyde inhibitor of Ich-1 was designed based upon the optimal peptide substrate (Peptide 43) described in Example 3. […] The ability of this peptidic aldehyde inhibitor to inhibit N-His Ich-1 activity was determined in in vitro proteolysis assays using a chromogenic para-nitroaniline-labeled peptide substrate. […]
To perform the proteolysis assay, N-His Ich-1 was preincubated for 30 minutes at 30° C. in 160 μl of a reaction buffer containing 100 mM sodium acetate (pH 6.2), 20% (v/v) glycerol, 5 mM DTT, 0.5 mM EDTA, […]. […] The incubation of N-His Ich-1 with the peptide substrate at 30° C. was continued, and the catalytic hydrolysis of peptide substrate was monitored by the change in absorbance of the samples at 405 nm due to release of pNA as a function of time. […]

B1: N-His Ich-1 (Homo sapiens) (protein)
chain 1: YQTHFQLAYRLQSRPRGLALVLSNVHFTGEKELEFRSGGDVDHSTLVTLFKLLGYDVHVLCDQTAQEMQEKLQNFAQLPAHRVTDSCIVALLSHGVEGAIYGVDGKLLQLQEVFQLFDNANCPSLQNKPKMFFIQACRGDETDRGVDQQD
chain 2: GKNHAGSPGCEESDAGKEKLPKMRLPTRSDMICGYACLKGTAAMRNTKRGSWYIEALAQVFSERACDMHVADMLVKVNALIKDREGYAPGTEFHRCKEMSEYCSTLCRHLYLFPGHPPT
notes: contains Ich-1 amino acid residues 167-435, with an initiator and polyhistidine tag fused to the amino terminus; initiator (Met) + polyhistidine tag (N); made in house
B1 showed a Km of 42 µM.
